In patent US20200325187A1 (Genentech, published 2020):

Columns and labels:
Test in all cases: spot phage ELISA
hVEGF-A (8-109) [1] = molecular target: T1, hVEGF-A (8-109) (human, UniProt P15692 214-315)
T1 sequence (looked up): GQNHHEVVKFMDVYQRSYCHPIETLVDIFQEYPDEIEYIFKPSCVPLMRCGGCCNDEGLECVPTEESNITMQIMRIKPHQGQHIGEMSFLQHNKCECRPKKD

LRP6 E1E2 protein = molecular target: T2, LRP6 E1E2 protein (human, UniProt O75581 20-630, limits assumed); for ELISA: unit not given here
T2 construct: domain: E1E2
T2 sequence (looked up): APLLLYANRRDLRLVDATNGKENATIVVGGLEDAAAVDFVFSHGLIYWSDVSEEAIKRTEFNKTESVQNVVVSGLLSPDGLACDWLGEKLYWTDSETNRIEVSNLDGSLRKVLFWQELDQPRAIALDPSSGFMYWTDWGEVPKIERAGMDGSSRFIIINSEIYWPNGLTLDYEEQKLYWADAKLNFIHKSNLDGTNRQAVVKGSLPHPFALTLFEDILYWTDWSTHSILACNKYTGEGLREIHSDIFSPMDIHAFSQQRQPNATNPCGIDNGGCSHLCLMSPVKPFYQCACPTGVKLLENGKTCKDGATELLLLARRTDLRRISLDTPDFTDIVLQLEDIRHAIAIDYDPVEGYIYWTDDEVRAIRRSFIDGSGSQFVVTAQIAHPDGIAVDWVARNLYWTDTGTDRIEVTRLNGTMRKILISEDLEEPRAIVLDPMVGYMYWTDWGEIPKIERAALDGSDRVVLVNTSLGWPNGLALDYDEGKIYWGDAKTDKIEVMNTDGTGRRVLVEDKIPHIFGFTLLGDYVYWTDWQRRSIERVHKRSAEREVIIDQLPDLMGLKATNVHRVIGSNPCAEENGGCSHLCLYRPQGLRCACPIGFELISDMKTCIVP

hVEGF-A (8-109) [2] = molecular target: T1, hVEGF-A (8-109); remark: listed apart in the source
Method: After four rounds of binding selection, individual phage clones were picked and inoculated into 450 μl 2YT media containing 50 µg/ml Carbenecillin and M13-KO7 helper phage in 96-well blocks, which were grown at 37° C. overnight. […] The plates were washed and bound phage was detected with anti-M13-HRP followed by TMB substrate. In these assays, phage binding to BSA alone was tested in parallel to assess background binding. […] Positive clones were subjected to DNA sequence analysis.

Binder | binding result (hVEGF-A (8-109) [1]) | ELISA (hVEGF-A (8-109) [2]) | S/N vs BSA (hVEGF-A (8-109) [2]) | further results
GCNIMLPFWGCGRDFECLAGCVCQYYQSCGPLI (designed binder) [9.54.90-3X83] | binds |  |  | 
GCNIMLPFWGCGRDFECLAGCVCQYYQSCGYLS (designed binder) [9.54.90-3x88] | binds |  |  | 
GCNIMLPFWGCGRDFECLAGCVCQYYQSCGWDY (designed binder) [9.54.90-3x9] | binds |  |  | 
GCNIMLPFWGCGRDFECLAGCVCQYYQSCGWPH (designed binder) [9.54.90-3x13] | binds |  |  | 
GCNIMLPFWGCGRDFECLAGCVCQYYQSCGTFQ (designed binder) [9.54.90-3x10] | binds |  |  | 
GCNIMLPFWGCGRDFECLAGCVCQYYQSCGPHQ (designed binder) [9.54.90-3x33] | binds |  |  | 
GCNIMLPFWGCGRDFECLAGCVCQYYQSCGEHK (designed binder) [9.54.90-3x42] | binds |  |  | 
GCNIMLPFWGCGRDFECLAGCVCQYYQSCGDLV (designed binder) [9.54.90-3x91] | binds |  |  | 
GCMNHVKARRCKQDSDCLAGCVCGPNGFCG (designed binder) [LRP6_CKP3] |  |  |  | ELISA (LRP6 E1E2 protein): 2.93; S/N vs BSA (LRP6 E1E2 protein): 40.2
GCGETVFEQFLWCKQDSDCLAGCVCGPNGFCG (designed binder) [VEGF_CKP2] |  | 3.2 | 48.1 | 
GCVNRVRGCKQDSDCLAGCVCSGGRDCG (designed binder) [LRP6_CKP2] |  |  |  | ELISA (LRP6 E1E2 protein): 3.41; S/N vs BSA (LRP6 E1E2 protein): 41.6
GCRGNIIKCKQDSDCLAGCVCNESRGCG (designed binder) [LRP6_CKP8] |  |  |  | ELISA (LRP6 E1E2 protein): 3.23; S/N vs BSA (LRP6 E1E2 protein): 37.6
GCQLMHPFWGCKQDSDCLAGCVCHWYRSCG (designed binder) [VEGF_CKP8] |  | 3.9 | 59.4 | 
GCQLMQPFWGCKQDSDCLAGCVCRWYHSCG (designed binder) [VEGF_CKP9.L5.43] |  | 0.9 | 13.6 | 
GCNIMLPFWGCGKDFHCLAGCVCQYYQSCG (designed binder) [VEGF_CKP9.54.56] |  | 2.3 | 35.8 | 
GCNIMLPFWGCGVDYLCLAGCVCQYYQSCG (designed binder) [VEGF_CKP9.54.16] |  | 2.4 | 30.8 | 
GCNIMLPFWGCGKELNCLAGCVCQYYQSCG (designed binder) [VEGF_CKP9.54.69] |  | 2.5 | 21.7 | 
GCNIMLPFWGCGYDLQCLAGCVCQYYQSCG (designed binder) [VEGF_CKP9.54.87] |  | 2.4 | 26.1 | 
GCNIMLPFWGCQADYACLAGCVCQYYQSCG (designed binder) [VEGF_CKP9.54.14] |  | 2.5 | 23.5 | 
GCNIMLPFWGCGWDQFCLAGCVCQYYQSCG (designed binder) [VEGF_CKP9.54.51] |  | 2.5 | 44.5 | 
GCNIMLPFWGCGPELNCLAGCVCQYYQSCG (designed binder) [VEGF_CKP9.54.12] |  | 2.4 | 38.8 | 
GCNIMLPFWGCGTNFLCLAGCVCQYYQSCG (designed binder) [VEGF_CKP9.54.31] |  | 2.3 | 32.5 | 
GCNIMLPFWGCNRDFLCLAGCVCQYYQSCG (designed binder) [VEGF_CKP9.54.48] |  | 2.5 | 34.9 | 
GCNIMLPFWGCSGDFACLAGCVCQYYQSCG (designed binder) [VEGF_CKP9.54.64] |  | 2.2 | 22.4 | 

Binder | binding result (hVEGF-A (8-109) [1]) | ELISA (hVEGF-A (8-109) [2]) | S/N vs BSA (hVEGF-A (8-109) [2]) | further results
GCNIMLPFWGCGWSMDCLAGCVCQYYQSCG (designed binder) [VEGF_CKP9.54.76] |  | 2.7 | 42.2 | 
GCQLMQPFWGCKQDSDCLAGCVCRWYNSCG (designed binder) [VEGF_CKP9.L5.7] |  | 1.4 | 18.9 | 
GCNIMLPFWGCSRDFDCLAGCVCQYYQSCG (designed binder) [VEGF_CKP9.54.44] |  | 2.4 | 34.4 | 
GCDVLQPYWGCGPDIDCLSNCICHWYNSCGRL (designed binder) [63.12.12.M5L.2x21] | binds |  |  | 
GCDVLQPYWGCGPDIDCLSNCICHWYNSCGDE (designed binder) [63.12.12.M5L.2x25] | binds |  |  | 
GCDVLQPYWGCGPDIDCLSNCICHWYNSCGQF (designed binder) [63.12.12.M5L.2x69] | binds |  |  | 
GCDVLQPYWGCGPDIDCLSNCICHWYNSCGSL (designed binder) [63.12.12.M5L.2x29] | binds |  |  | 
GCDVLQPYWGCGPDIDCLSNCICHWYNSCGWK (designed binder) [63.12.12.M5L.2x77] | binds |  |  | 
GCDVLQPYWGCGPDIDCLSNCICHWYNSCGPT (designed binder) [63.12.12.M5L.2x30] | binds |  |  | 
GCDVLQPYWGCGPDIDCLSNCICHWYNSCGPL (designed binder) [63.12.12.M5L.2x48] | binds |  |  | 
GCDVLQPYWGCGPDIDCLSNCICHWYNSCGEQ (designed binder) [63.12.12.M5L.2x12] | binds |  |  | 
GCDVLQPYWGCGPDIDCLSNCICHWYNSCGRT (designed binder) [63.12.12.M5L.2x2] | binds |  |  | 
GCKKWQWWYMCKQDSDCLAGCVCYPWTECG (designed binder) [VEGF_CKP4] |  | 2.6 | 35.3 | 
GCRTNRVKGGCKQDSDCLAGCVCGPNGFCG (designed binder) [LRP6_CKP1] |  |  |  | ELISA (LRP6 E1E2 protein): 3.23; S/N vs BSA (LRP6 E1E2 protein): 45.5
GCRANRVSGRCKQDSDCLAGCVCGPNGFCG (designed binder) [LRP6_CKP18] |  |  |  | ELISA (LRP6 E1E2 protein): 1.67; S/N vs BSA (LRP6 E1E2 protein): 18.3
GCRSGNTIRKRECKQDSDCLAGCVCGGPGGCG (designed binder) [LRP6_CKP9] |  |  |  | ELISA (LRP6 E1E2 protein): 2.97; S/N vs BSA (LRP6 E1E2 protein): 37.6
GCRSVNKICKQDSDCLAGCVCGSSRNCG (designed binder) [LRP6_CKP4] |  |  |  | ELISA (LRP6 E1E2 protein): 2.82; S/N vs BSA (LRP6 E1E2 protein): 25.4
GCVNKIKGCKQDSDCLAGCVCGVEGRCG (designed binder) [LRP6_CKP5] |  |  |  | ELISA (LRP6 E1E2 protein): 3.04; S/N vs BSA (LRP6 E1E2 protein): 35.7
GCPRILMRCKQDSDCLAGCVCGPNGFCG (also called wild type EETI-II) [EETI-II] |  | 0.01 | 1.11 | 
GCHMMYDYCKQDSDCLAGCVCEMYDACG (designed binder) [VEGF_CKP3] |  | 3.1 | 42.9 | 
GCVSNRVNKGCKQDSDCLAGCVCGPNGFCG (designed binder) [LRP6_CKP7] |  |  |  | ELISA (LRP6 E1E2 protein): 3.3; S/N vs BSA (LRP6 E1E2 protein): 29
GCPAIQNWKEHPCKQDSDCLAGCVCSWWPSLCG (designed binder) [VEGF_CKP5] |  | 1.9 | 28.4 | 
GCETDWYPHQIDCKQDSDCLAGCVCGPNGFCG (designed binder) [VEGF_CKP1] |  | 0.9 | 16.9 | 
